{"source": "patent US20240158512A1", "about": "(TRUEBINDING, published 2024)", "key": {"Galectin-3 [1]": {"molecular_target": "T1, Galectin-3 (UniProt P17931 1-250, limits assumed)", "T1 construct": "also called Gal3; GAL3", "experiment": "BLI binding activity; DP stored at 5° C. for 1 month"}, "Galectin-3 [2]": {"molecular_target": "T1, Galectin-3", "experiment": "BLI binding activity; DP stored at 25° C. for 1 month"}, "Galectin-3 [3]": {"molecular_target": "T1, Galectin-3", "experiment": "BLI binding activity; DP stored at 5° C. for 3 months"}, "Galectin-3 [4]": {"molecular_target": "T1, Galectin-3", "experiment": "BLI binding activity; DP stored at 5° C. for 6 months"}, "Galectin-3 [5]": {"molecular_target": "T1, Galectin-3", "experiment": "BLI binding activity; DP stored at 5° C. for 9 months"}, "Galectin-3 [6]": {"molecular_target": "T1, Galectin-3", "experiment": "BLI binding activity; DP stored at 25° C. for 3 months"}, "Galectin-3 [7]": {"molecular_target": "T1, Galectin-3", "experiment": "BLI binding activity; DP stored at 25° C. for 6 months"}, "Galectin-3 [8]": {"molecular_target": "T1, Galectin-3", "experiment": "BLI binding activity; DP stored at 5° C. for 12 months"}, "Galectin-3 [9]": {"molecular_target": "T1, Galectin-3", "experiment": "BLI binding activity; DP stored at 5° C. for 18 months"}, "Galectin-3 [10]": {"molecular_target": "T1, Galectin-3", "experiment": "ELISA biological activity (blocking ELISA, blocked partner not named); DP stored at 5° C. for 1 month"}, "Galectin-3 [11]": {"molecular_target": "T1, Galectin-3", "experiment": "ELISA biological activity (blocking ELISA, blocked partner not named); DP stored at 25° C. for 1 month"}, "Galectin-3 [12]": {"molecular_target": "T1, Galectin-3", "experiment": "ELISA biological activity (blocking ELISA, blocked partner not named); DP stored at 5° C. for 3 months"}, "Galectin-3 [13]": {"molecular_target": "T1, Galectin-3", "experiment": "ELISA biological activity (blocking ELISA, blocked partner not named); DP stored at 5° C. for 6 months"}, "Galectin-3 [14]": {"molecular_target": "T1, Galectin-3", "experiment": "ELISA biological activity (blocking ELISA, blocked partner not named); DP stored at 5° C. for 9 months"}, "Galectin-3 [15]": {"molecular_target": "T1, Galectin-3", "experiment": "ELISA biological activity (blocking ELISA, blocked partner not named); DP stored at 25° C. for 3 months"}, "Galectin-3 [16]": {"molecular_target": "T1, Galectin-3", "experiment": "ELISA biological activity (blocking ELISA, blocked partner not named); DP stored at 25° C. for 6 months"}, "Galectin-3 [17]": {"molecular_target": "T1, Galectin-3", "experiment": "ELISA biological activity (blocking ELISA, blocked partner not named); DP stored at 5° C. for 12 months"}, "Galectin-3 [18]": {"molecular_target": "T1, Galectin-3", "experiment": "ELISA biological activity (blocking ELISA, blocked partner not named); DP stored at 5° C. for 18 months"}, "Galectin-3 [19]": {"molecular_target": "T1, Galectin-3", "experiment": "ELISA biological activity (blocking ELISA, blocked partner not named); 20 mg/mL DP, time 0; Time 0 (control), 20 mg/mL DP"}}, "data": [{"binder": "TB006 (antibody, human IgG4 S228P, kappa, V domains shown, Tested as drug product at 20 mg/mL in 20 mM L-histidine, 5 mM methionine, 100 mM NaCl, 0.02% polysorbate-80, pH 5.8; also called 4A11.H3L1; IMT006a) VH: QVQLVQSGAEVKKPGASVKVSCKASGYSFTNYYMHWVRQAPGQRLEWMGWIYPGSGNTNYNEKFQGRVTITADTSASTAYMELSSLRSEDTAVYYCSTAPGGFDVWGQGTTVTVSS VL: DIVMTQTPLSLSVTPGQPASISCKSSKSLLHSDGITYLYWYLQKPGQSPQLLIYRMSNLASGVPDRFSGSGSGTDFTLKISRVEAEDVGVYYCAQMLEFPLTFGQGTKLEIKR", "values": [{"measurement": "Kd", "setting": "Galectin-3 [1]", "value": 2.5, "unit": "nM"}, {"measurement": "Kd", "setting": "Galectin-3 [2]", "value": 2.5, "unit": "nM"}, {"measurement": "Kd", "setting": "Galectin-3 [3]", "value": 3, "unit": "nM"}, {"measurement": "Kd", "setting": "Galectin-3 [4]", "value": 3.5, "unit": "nM"}, {"measurement": "Kd", "setting": "Galectin-3 [5]", "value": 2.5, "unit": "nM"}, {"measurement": "Kd", "setting": "Galectin-3 [6]", "value": 3.1, "unit": "nM"}, {"measurement": "Kd", "setting": "Galectin-3 [7]", "value": 3.7, "unit": "nM"}, {"measurement": "Kd", "setting": "Galectin-3 [8]", "value": 3.1, "unit": "nM"}, {"measurement": "Kd", "setting": "Galectin-3 [9]", "value": 2, "unit": "nM"}, {"measurement": "IC50", "setting": "Galectin-3 [10]", "value": 1.8, "unit": "µg/mL"}, {"measurement": "IC50", "setting": "Galectin-3 [11]", "value": 1.8, "unit": "µg/mL"}, {"measurement": "IC50", "setting": "Galectin-3 [12]", "value": 1.5, "unit": "µg/mL"}, {"measurement": "IC50", "setting": "Galectin-3 [13]", "value": 1.5, "unit": "µg/mL"}, {"measurement": "IC50", "setting": "Galectin-3 [14]", "value": 1.2, "unit": "µg/mL"}, {"measurement": "IC50", "setting": "Galectin-3 [15]", "value": 1.5, "unit": "µg/mL"}, {"measurement": "IC50", "setting": "Galectin-3 [16]", "value": 1.5, "unit": "µg/mL"}, {"measurement": "IC50", "setting": "Galectin-3 [17]", "value": 1.5, "unit": "µg/mL"}, {"measurement": "IC50", "setting": "Galectin-3 [18]", "value": 1.8, "unit": "µg/mL"}, {"measurement": "IC50", "setting": "Galectin-3 [19]", "value": 2.5, "unit": "µg/mL"}]}]}
